Measurements: patent US20260274983A1 (MODERNATX, published 2026)
Substitutions are numbered along the chain they refer to.

T1: CD38 (UniProt P28907 1-300, limits assumed)
T1 construct: whole, on cells; also called CD38 on RPMI8226 cells; CD38 on H929 cells
T1 sequence (looked up): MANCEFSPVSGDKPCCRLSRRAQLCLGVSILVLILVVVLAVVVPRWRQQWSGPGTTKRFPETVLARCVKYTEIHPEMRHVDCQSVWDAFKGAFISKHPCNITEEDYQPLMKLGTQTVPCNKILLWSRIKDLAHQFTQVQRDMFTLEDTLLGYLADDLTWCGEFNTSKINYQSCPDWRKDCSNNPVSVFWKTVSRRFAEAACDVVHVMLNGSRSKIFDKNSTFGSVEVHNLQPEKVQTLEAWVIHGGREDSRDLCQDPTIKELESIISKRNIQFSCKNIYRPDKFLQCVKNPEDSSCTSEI

T2: human BCMA (human, UniProt Q02223 1-184)
T2 construct: whole, on cells; Human is stated only for CHO-HuBCMA; also called HuBCMA; B-cell maturation antigen
T2 sequence (looked up): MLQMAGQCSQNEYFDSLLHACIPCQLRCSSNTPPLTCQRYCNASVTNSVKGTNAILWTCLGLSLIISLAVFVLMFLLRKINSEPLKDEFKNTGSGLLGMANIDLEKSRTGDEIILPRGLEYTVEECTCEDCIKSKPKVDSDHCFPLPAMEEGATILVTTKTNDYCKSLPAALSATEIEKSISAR

B1: GPRC5D-VHH1-H7 (VHH)
VHH: QVQLVESGGGLVQPGGSLRLSCAASGRTVSSYAMGWFRQAPGKEREFVSAISWSGRSTYYADSMKGRFTISRDNAKNTLYLQMNSLRAEDTAVYYCATSRAVIPGRDWNYYEYWGQGTLVTVSS
notes: Humanized variant of GPRC5D-VHH1
B2: CD38-VHH9 (VHH)
VHH: QVQLVESGGGLVQAGGSLRLSCVASGFIYSISTMGWYRQAPGKQRELVATITSGGNTNYADSVKGRFTISRDNAQNTVYLQMNNLKPEDTAIYYCNTAWRETIVSRVWGQGTQVTVSS
B3: CD38-VHH7 (VHH)
VHH: QVQLVESGGGLVHTGGSLRLSCAASGSISGLNTMGWYRQAPGKQRELVATIISGTMTRYADSVKGRFTISKDNAKNTVYLQMNSLKPEDTAVYYCTFKEITRDSRSYWGQGTQVTVSS
B4: CD38-VHH1 (VHH)
VHH: QVQLVESGGGLVQPGDSLRLSCAASGFILDTYSVAWFRQAPGKEREGVSCISSRDGNTFYSDSVKGRFTISRDNAKNTVYLQMNSLKSEDTAVYTCAAGAQAHCTIFTSYFNSDYYRRYNYWGQGTQVTVSS
B5: CD38-VHH8 (VHH)
VHH: QVQLVESGGGLVQAGGSLRLSCAASGSSVSMNSMAWYRQAPGKQRELVALITPGDRINYADFVKGRFTISRDNAKNTVNLQMNNLKPEDTAVYYCNIGATRPPFGAWGQGTQVTVSS
B6: CD38-VHH6 (VHH)
VHH: QVQLVESGGGLVQAGGSLRLSCAASGTFSSINLMGYYRQAPGKQREFVARDYTEGTTDYADSVKGRFTISRDNTKKTVFLQMNNLKPEDTAIYYCWLMVRAGDVYWGQGTQVTVSS
B7: CD38-VHH12 (VHH)
VHH: QVQLVESGGGLVQAGGSLRLSCVASGIIFRIFSMGWYRQAPGKQRELVATITSGGNTNYAHSVKGRFTISRDDAKNTVNLQMNSLKPEDTAVYYCNVAIPSGIVDRSAWGQGTQVTVSS
B8: CD38-VHH3 (VHH)
VHH: QVQLVESGGGLVQAGGSLTLSCAASRSIFEINTMTMGWYRQAPGKQRELIAASRGATTNYADSVKGRFTISRDNAKNTVYLQMNSLKPEDTAVYYCSADRYGFGYGDNDYWGQGTQVTVSS
B9: CD38-VHH2 (VHH)
VHH: QVQLVESGGGLVQPGGSLRLSCAASGFIFSDKVMSWVRQAPGKGREWVSTITPGGTATSYTESVKGRFTISRDNAKNTLYLQMNNLKPDDTALYYCRIGGPGGRYDNWGQGTQVTVSS
B10: CD38-VHH5 (VHH)
VHH: QVQLVESGGGLVQTGGSLRLSCVASGAIVSAESMGWYRQAPGNQRELVAEIISGSKSNYGESVKGRFTISRDNAENTVYLQMNSVKPEDTAVYYCKRTERIWTNNPQVYWGQGTQVTVSS
B11: BCMA-VHH7 (Fc fusion)
chain: EVQLVDSGGGLVQAGGSLRLSCAASGSTFSRYAMGWIRQAPGKEREFVAAISWSGGSTYYADSVKGRFTISRDVAKNTVSLQMNSLKPEDAGVYFCFGDIIRSGERSDYEYWGQGTRVTVTS
notes: not shown: Fc of the Fc formatted construct
B12: BCMA-VHH11 (Fc fusion)
chain: QVQLVDSGGGLVQPGGSLRLSCAASGFTFSSYWMYWVRQAPGKGLEWVSAINTDGDSTYYADSVKGRFTVSRDVAGNMIYLQMTNLKPEDTAVYTCAAIVTRSDGHQYDYWGRGTQVTVSV
notes: as for B11
B13: BCMA-VHH13 (Fc fusion)
chain: QVQLVDSGGRLVQAGDSLRLSCSASGFTFGSYWMFWVRQAPGKGLEWVSAIDTSGGHVYYGDSVNGRFTISRDNAKNTLYLQMNSLKPEDTALYYCARVENTWESIYWGQGTTVTVSS
notes: as for B11
B14: BCMA-VHH16 (Fc fusion)
chain: QVKLEESGGGLVQAGGSLRLSCAASGHTFSNSAMGWIRQAPGKEREFVAAISLNGGNTHYAESVKGRFAISRDNAKNTMYLQMNSLKPEDTAVYYCATLGFASWGQGTQVTVSS
notes: as for B11
B15: BCMA-VHH3 (Fc fusion)
chain: QVQLVESGGGLVQAGGSLRLSCAASGSIFAYHVMGWYRQAPGKQRELVALITSGGSTNYTDSVKGRFTISRDNAKNTVYLQMNSLKPEDTAVYYCAIGYYSGSYYWERSGDYWGQGTQVTVSS
notes: as for B11
B16: BCMA-VHH17 (Fc fusion)
chain: QVQLVESGGGLVQAGGSLRLSCAASGRTFSGYTMAWFRQAPGSEREFVAAAVGSDGSTYYVDSVKGRFTMSRDSAKNTVYLMMTSLQPVDSAVYFCVKLDSGAWSLAEWGQGTQVTVSS
notes: as for B11
B17: BCMA-VHH9 (Fc fusion)
chain: QVKLEESGGGFVQPGGSLRLSCAASGFTYSSYWMHWVRQAPGKGLEWVSGISTGGDTTDTYYADSVKGRFTISRDNAKNTLYLQMNSLKPEDTAVYYCVALNLWGTDLEHDYWGRGTQVTVSS
notes: as for B11
B18: BCMA-VHH1 (Fc fusion)
chain: AVQLVDSGGGLVTAGDSLTLSCVASGRTLSPYTAGWFRQAPGREREFVALITARGDWTSYSDSVKGRFTISRDNAKNTIYLQMNSLEPEDTALYYCVRDLLGRDDYWGQGTQVTVSS
notes: as for B11
B19: BCMA-VHH20 (Fc fusion)
chain: QVQLVESGGGLVQPGGSLRLSCAASGFTFSNYAMIWVRQAPGKGLEWVSSINANSDTTAYSDSVKGRFAISRDNARNTLYLQMNSLKPEDTAVYFCVSDSYIGGLYATYVYWGQGTQVTVSS
notes: as for B11
B20: BCMA-VHH18 (Fc fusion)
chain: PVQLVESGGGLVQAGGSLRLSCAASGRTFSSYAMGWFRQAPGKEREFVAGVSWTGDNTGYADSVKGRFTISRDNFKSTVYLEMNSLKPEDTAVYFCAAWNWGHHEYTYWGRGTQVTVSS
notes: as for B11
B21: BCMA-VHH8 (Fc fusion)
chain: QVQLVQSGGGLVLPGGSLRLSCAASGFTLSSYWMHWLRQAPGKGLEWVSAIKPESGITYYAESMKGRFTISRDNAKNTLYLQMNSLKSEDSALYYCVREDYDSAYVGDYWGKGTQVTVSS
notes: as for B11
B22: BCMA-VHH15 (Fc fusion)
chain: QVQLVESGGGLVQPGGSLRLSCAASGFTFSTYSMYWVRQAPGKGLEWVSAIDARGVNTYYADSVRGRFTVSRDNAKNTLYLQMNNLKLEDTALYYCGGWEFATWGRGTQVTVSS
notes: as for B11
B23: BCMA-VHH2 (Fc fusion)
chain: HVQLVESGGGLVQTGGSLRLSCAASGRTLNNYVVAWFRQAPGKEREFVATMWWSGGSPWYSDNVKGRFTISRDNAKNTLYLQMNSLRPEDTAVYYCAATWVGTSEYRHWGQGTQVTVSS
notes: as for B11
B24: BCMA-VHH4 (Fc fusion)
chain: B23 chain with H1Q, Q3K, V5E, R107Q
notes: as for B11

Molecular target: T3, human GPRC5D (human, UniProt Q9NZD1 1-345)
T3 construct: whole, on cells; Human is stated only for CHO-HuGPRC5D; also called HuGPRC5D; GPRC5D on CHO-HuGPRC5D cells
Assay: FACS on CHO-HuGPRC5D cells

T3 sequence (Q9NZD1 whole entry): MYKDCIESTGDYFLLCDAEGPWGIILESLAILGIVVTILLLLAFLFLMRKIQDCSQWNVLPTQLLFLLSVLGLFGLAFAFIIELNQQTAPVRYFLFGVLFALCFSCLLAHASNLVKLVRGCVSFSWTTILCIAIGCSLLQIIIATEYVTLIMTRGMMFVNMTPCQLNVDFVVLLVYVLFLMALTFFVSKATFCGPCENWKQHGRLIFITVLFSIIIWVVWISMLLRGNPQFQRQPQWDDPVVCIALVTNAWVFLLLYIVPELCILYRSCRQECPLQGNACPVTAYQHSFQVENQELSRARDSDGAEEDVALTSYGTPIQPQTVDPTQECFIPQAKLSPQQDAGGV

Row | EC50 [nM] | Binder
1 | 4.44 | B1

Molecular target: T1, CD38
Assay: FACS on H929 cells, VHH-His

Row | EC50 [nM] | Binder
2 | 2.62 | B2
3 | 3.55 | B3
4 | 4.43 | B4
5 | 2.06 | B5
6 | 101 | B6
7 | 25.7 | B7
8 | 1.36 | B8
9 | 6.14 | B9

Molecular target: T1, CD38
Assay: FACS on RPMI8226 cells, VHH-His

Row | EC50 [nM] | Binder
10 | 0.51 | B2
11 | 1.91 | B3
12 | < 1 | B4
13 | 0.45 | B5
14 | 28.4 | B6
15 | 10.5 | B7
16 | 0.35 | B8
17 | 1.01 | B9
18 | 71.3 | B10

Molecular target: T2, human BCMA
Assay: FACS on H929 cells, Fc formatted

Row | EC50 [nM] | Binder
19 | 268 | B11
20 | 45.9 | B12
21 | 15.5 | B13
22 | 41.8 | B14
23 | 11 | B15
24 | 1.01 | B16
25 | 43.4 | B17
26 | 78 | B18
27 | 83.4 | B19

Molecular target: T2, human BCMA
Assay: FACS on CHO-HuBCMA cells, Fc formatted

Row | EC50 [nM] | Binder
28 | 1020 | B20
29 | 170 | B21
30 | 1.76 | B22
31 | 0.8 | B23
32 | 0.57 | B24
